Reference: article PMC12126155 (Molecular cell, 2025)

Molecular target: histone H4 (X. laevis), as in the H3K4Cme3 nucleosome (X. laevis, UniProt P62799 1-103)
Assay: cryo-EM structure

B1: H. sapiens Chromodomain Helicase DNA Binding Protein 1 (CHD1 residues 1-1327 lacking the CHCT domain) (enzyme)
chain: MNGHSDEESVRNSSGESSQSDDDSGSASGSGSGSSSGSSSDGSSSQSGSSDSDSGSESGSQSESESDTSRENKVQAKPPKVDGAEFWKSSPSILAVQRSAILKKQQQQQQQQQHQASSNSGSEEDSSSSEDSDDSSSEVKRKKHKDEDWQMSGSGSPSQSGSDSESEEEREKSSCDETESDYEPKNKVKSRKPQNRSKSKNGKKILGQKKRQIDSSEEDDDEEDYDNDKRSSRRQATVNVSYKEDEEMKTDSDDLLEVCGEDVPQPEEEEFETIERFMDCRIGRKGATGATTTIYAVEADGDPNAGFEKNKEPGEIQYLIKWKGWSHIHNTWETEETLKQQNVRGMKKLDNYKKKDQETKRWLKNASPEDVEYYNCQQELTDDLHKQYQIVERIIAHSNQKSAAGYPDYYCKWQGLPYSECSWEDGALISKKFQACIDEYFSRNQSKTTPFKDCKVLKQRPRFVALKKQPSYIGGHEGLELRDYQLNGLNWLAHSWCKGNSCILADEMGLGKTIQTISFLNYLFHEHQLYGPFLLVVPLSTLTSWQREIQTWASQMNAVVYLGDINSRNMIRTHEWTHHQTKRLKFNILLTTYEILLKDKAFLGGLNWAFIGVDEAHRLKNDDSLLYKTLIDFKSNHRLLITGTPLQNSLKELWSLLHFIMPEKFSSWEDFEEEHGKGREYGYASLHKELEPFLLRRVKKDVEKSLPAKVEQILRMEMSALQKQYYKWILTRNYKALSKGSKGSTSGFLNIMMELKKCCNHCYLIKPPDNNEFYNKQEALQHLIRSSGKLILLDKLLIRLRERGNRVLIFSQMVRMLDILAEYLKYRQFPFQRLDGSIKGELRKQALDHFNAEGSEDFCFLLSTRAGGLGINLASADTVVIFDSDWNPQNDLQAQARAHRIGQKKQVNIYRLVTKGSVEEDILERAKKKMVLDHLVIQRMDTTGKTVLHTGSAPSSSTPFNKEELSAILKFGAEELFKEPEGEEQEPQEMDIDEILKRAETHENEPGPLTVGDELLSQFKVANFSNMDEDDIELEPERNSKNWEEIIPEDQRRRLEEEERQKELEEIYMLPRMRNCAKQISFNGSEGRRSRSRRYSGSDSDSISEGKRPKKRGRPRTIPRENIKGFSDAEIRRFIKSYKKFGGPLERLDAIARDAELVDKSETDLRRLGELVHNGCIKALKDSSSGTERTGGRLGKVKGPTFRISGVQVNAKLVISHEEELIPLHKSIPSDPEERKQYTIPCHTKAAHFDIDWGKEDDSNLLIGIYEYGYGSWEMIKMDPDLSLTHKILPDDPDKKPQAKQLQTRADYLIKLLSRDLAKKEALSGAG
Does B1 bind?
Result: binds
